Data set [1] concerns HeLa Kyoto. In words: solubility in G1/S (NP-40 vs SDS abundance) (log2 ratio); higher = more soluble. The following applies: cell cycle stage: G1/S.
Data set [2] deals with HeLa Kyoto. Kind of data set: thermal stability score vs G1/S (z-score of summed log2 fold changes over temperatures); higher = more thermally stable than in G1/S.
Data set [3] has as its system HeLa Kyoto. Kind of data set: melting temperature (median over replicates), in situ; higher = more thermally stable.
Data set [4] concerns HeLa Kyoto. Kind of data set: solubility change mitosis vs G1/S (difference of NP-40 vs SDS log2 ratios) (log2 ratio difference); higher = more soluble in mitosis.
Setting [5] is: cell cycle stage: early G1 (4.5 h after nocodazole release).

We go through nine sequences from the supplement of paper PMC5998384.
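For melting temperature (median over replicates), in situ in this document: HeLa Kyoto cells synchronized by double thymidine or nocodazole block, proteins quantified by TMT10plex mass spectrometry, three independent biological replicates.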
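For solubility change mitosis vs G1/S (difference of NP-40 vs SDS log2 ratios) in this document: synchronized HeLa Kyoto cells (double thymidine block for G1/S, nocodazole release for mitosis), protein amounts in NP-40 versus SDS lysates quantified by mass spectrometry, three biological replicates.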
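For solubility in G1/S (NP-40 vs SDS abundance) in this document: HeLa Kyoto cells arrested at G1/S by double thymidine block, proteins quantified by TMT10plex mass spectrometry in mild NP-40 versus SDS extracts, three biological replicates.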
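For thermal stability score vs G1/S (z-score of summed log2 fold changes over temperatures) in this document: synchronized HeLa Kyoto cells, proteins quantified by TMT10plex mass spectrometry, three biological replicates, mitosis taken 0.5 h after nocodazole release, G1/S directly after double thymidine block.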

On to “MEPPSCIQDEPFPHPLEPEPGVSAQPGPGKPSDKRFRLWYVGGSCLDHRTTLPMLPWLMAEIRRRSQKPEAGGCGAPAAREVILVLSAPFLRCVPAPGAGASGGTSPSATQPNPAVFIFEHKAQHISRFIHNSHDLTYFAYLIKAQPDDPESQMACHVFRATDPSQVPDVISSIRQLSKAAMKEDAKPSKDNEDAFYNSQKFEVLYCGKVTVTHKKAPSSLIDDCMEKFSLHEQQRLKIQGEQRGPDPGEDLADLEVVVPGSPGDCLPEEADGTDTHLGLPAGASQPALTSSRVCFPERILEDSGFDEQQEFRSRCSSVTGVQRRVHEGSQKSQPRRRHASAPSHVQPSDSEKNRTMLFQVGRFEINLISPDTKSVVLEKNFKDISSCSQGIKHVDHFGFICRESPEPGLSQYICYVFQCASESLVDEVMLTLKQAFSTAAALQSAKTQIKLCEACPMHSLHKLCERIEGLYPPRAKLVIQRHLSSLTDNEQADIFERVQKMKPVSDQEENELVILHLRQLCEAKQKTHVHIGEGPSTISNSTIPENATSSGRFKLDILKNKAKRSLTSSLENIFSRGANRMRGRLGSVDSFERSNSLASEKDYSPGDSPPGTPPASPPSSAWQTFPEEDSDSPQFRRRAHTFSHPPSSTKRKLNLQDGRAQGVRSPLLRQSSSEQCSNLSSVRRMYKESNSSSSLPSLHTSFSAPSFTAPSFLKSFYQNSGRLSPQYENEIRQDTASESSDGEGRKRTSSTCSNESLSVGGTSVTPRRISWRQRIFLRVASPMNKSPSAMQQQDGLDRNELLPLSPLSPTMEEEPLVVFLSGEDDPEKIEERKKSKELRSLWRKAIHQQILLLRMEKENQKLEASRDELQSRKVKLDYEEVGACQKEVLITWDKKLLNCRAKIRCDMEDIHTLLKEGVPKSRRGEIWQFLALQYRLRHRLPNKQQPPDISYKELLKQLTAQQHAILVDLGRTFPTHPYFSVQLGPGQLSLFNLLKAYSLLDKEVGYCQGISFVAGVLLLHMSEEQAFEMLKFLMYDLGFRKQYRPDMMSLQIQMYQLSRLLHDYHRDLYNHLEENEISPSLYAAPWFLTLFASQFSLGFVARVFDIIFLQGTEVIFKVALSLLSSQETLIMECESFENIVEFLKNTLPDMNTSEMEKIITQVFEMDISKQLHAYEVEYHVLQDELQESSYSCEDSETLEKLERANSQLKRQNMDLLEKLQVAHTKIQALESNLENLLTRETKMKSLIRTLEQEKMAYQKTVEQLRKLLPADALVNCDLLLRDLNCNPNNKAKIGNKP [TBC1D4]”, for which the “solubility in G1/S (log2)” value with HeLa Kyoto [1] is -0.0729. The thermal stability score was -0.833 in the data set on HeLa Kyoto [2] (setting [5]) and -0.739 with HeLa Kyoto [2] (cell cycle stage: mitosis). The results for the melting temperature in the data set with HeLa Kyoto [3] (cell cycle stage: G1/S) and with HeLa Kyoto [3] (cell cycle stage: mitosis) were 51.1 °C and 50.5 °C, respectively. Moreover, the “solubility change mitosis (log2)” value in the data set on HeLa Kyoto [4] is -0.0775.
Take “MEPRAVGVSKQDIREQIWGYMESQNLADFPRPVHHRIPNFKGSYLACQNIKDLDVFARTQEVKVDPDKPLEGVRLLVLQSKKTLLVPTPRLRTGLFNKITPPPGATKDILRKCATSQGVRNYSVPIGLDSRVLVDLVVVGSVAVSEKGWRIGKGEGYADLEYAMMVSMGAVSKETPVVTIVHDCQVVDIPEELVEEHDITVDYILTPTRVIATGCKRPKPMGITWFKISLEMMEKIPILRSLRAREQQAGKDVTLQGEHQHLPEPGCQQTVPLSVGRRPPDTPGPETNSMEAAPGSPPGEGAPLAADVYVGNLPGDARVSDLKRALRELGSVPLRLTWQGPRRRAFLHYPDSAAAQQAVSCLQGLRLGTDTLRVALARQQRDK [MTHFSD]”: in the data set with HeLa Kyoto [1], the “solubility in G1/S (log2)” value was -0.0248. Besides, the figures for the thermal stability score in the data set on HeLa Kyoto [2] (setting [5]) and with HeLa Kyoto [2] (cell cycle stage: mitosis) were -0.334 and -0.971, respectively. Besides, the melting temperature was 54.7 °C in the data set with HeLa Kyoto [3] (cell cycle stage: G1/S) and 53.5 °C in the data set with HeLa Kyoto [3] (cell cycle stage: mitosis). Moreover, the “solubility change mitosis (log2)” value in the data set on HeLa Kyoto [4] stood at 0.0284.
For “MEPSSKKLTGRLMLAVGGAVLGSLQFGYNTGVINAPQKVIEEFYNQTWVHRYGESILPTTLTTLWSLSVAIFSVGGMIGSFSVGLFVNRFGRRNSMLMMNLLAFVSAVLMGFSKLGKSFEMLILGRFIIGVYCGLTTGFVPMYVGEVSPTALRGALGTLHQLGIVVGILIAQVFGLDSIMGNKDLWPLLLSIIFIPALLQCIVLPFCPESPRFLLINRNEENRAKSVLKKLRGTADVTHDLQEMKEESRQMMREKKVTILELFRSPAYRQPILIAVVLQLSQQLSGINAVFYYSTSIFEKAGVQQPVYATIGSGIVNTAFTVVSLFVVERAGRRTLHLIGLAGMAGCAILMTIALALLEQLPWMSYLSIVAIFGFVAFFEVGPGPIPWFIVAELFSQGPRPAAIAVAGFSNWTSNFIVGMCFQYVEQLCGPYVFIIFTVLLVLFFIFTYFKVPETKGRTFDEIASGFRQGGASQSDKTPEELFHPLGADSQV [SLC2A1]”, the “solubility in G1/S (log2)” value in the data set on HeLa Kyoto [1] was determined as 0.0648. In addition, the figures for the thermal stability score with HeLa Kyoto [2] (setting [5]) and with HeLa Kyoto [2] (cell cycle stage: mitosis) were -1.89 and -3.29, respectively. In the data set on HeLa Kyoto [3] (cell cycle stage: G1/S), this sequence returned a melting temperature of 57.3 °C. Moreover, in the data set on HeLa Kyoto [4], the “solubility change mitosis (log2)” value was -0.284.
Take “MEPTAPSLTEEDLTEVKKDALENLRVYLCEKIIAERHFDHLRAKKILSREDTEEISCRTSSRKRAGKLLDYLQENPKGLDTLVESIRREKTQNFLIQKITDEVLKLRNIKLEHLKGLKCSSCEPFPDGATNNLSRSNSDESNFSEKLRASTVMYHPEGESSTTPFFSTNSSLNLPVLEVGRTENTIFSSTTLPRPGDPGAPPLPPDLQLEEEGTCANSSEMFLPLRSRTVSRQ [BCL10]”: the “solubility in G1/S (log2)” value with HeLa Kyoto [1] worked out at 0.624. The thermal stability score in the data set on HeLa Kyoto [2] (setting [5]) is -0.239; in the data set on HeLa Kyoto [2] (cell cycle stage: mitosis), -0.726. Also, the melting temperature in the data set on HeLa Kyoto [3] (cell cycle stage: G1/S) worked out at 49.8 °C; with HeLa Kyoto [3] (cell cycle stage: mitosis) it was 50.5 °C. The “solubility change mitosis (log2)” value in the data set on HeLa Kyoto [4] was 0.181.
Turning to “MEPVGCCGECRGSSVDPRSTFVLSNLAEVVERVLTFLPAKALLRVACVCRLWRECVRRVLRTHRSVTWISAGLAEAGHLEGHCLVRVVAEELENVRILPHTVLYMADSETFISLEECRGHKRARKRTSMETALALEKLFPKQCQVLGIVTPGIVVTPMGSGSNRPQEIEIGESGFALLFPQIEGIKIQPFHFIKDPKNLTLERHQLTEVGLLDNPELRVVLVFGYNCCKVGASNYLQQVVSTFSDMNIILAGGQVDNLSSLTSEKNPLDIDASGVVGLSFSGHRIQSATVLLNEDVSDEKTAEAAMQRLKAANIPEHNTIGFMFACVGRGFQYYRAKGNVEADAFRKFFPSVPLFGFFGNGEIGCDRIVTGNFILRKCNEVKDDDLFHSYTTIMALIHLGSSK [FBXO22]”, the “solubility in G1/S (log2)” value in the data set on HeLa Kyoto [1] was -0.097. For the same sequence, the thermal stability score in the data set on HeLa Kyoto [2] (setting [5]) is -9.18; in the data set on HeLa Kyoto [2] (cell cycle stage: mitosis), -9.79. Moreover, the melting temperature with HeLa Kyoto [3] (cell cycle stage: G1/S) was determined as 55.1 °C; in the data set with HeLa Kyoto [3] (cell cycle stage: mitosis), 53.1 °C. The “solubility change mitosis (log2)” value in the data set on HeLa Kyoto [4] was -0.22.
As for “MEQLSSANTRFALDLFLALSENNPAGNIFISPFSISSAMAMVFLGTRGNTAAQLSKTFHFNTVEEVHSRFQSLNADINKRGASYILKLANRLYGEKTYNFLPEFLVSTQKTYGADLASVDFQHASEDARKTINQWVKGQTEGKIPELLASGMVDNMTKLVLVNAIYFKGNWKDKFMKEATTNAPFRLNKKDRKTVKMMYQKKKFAYGYIEDLKCRVLELPYQGEELSMVILLPDDIEDESTGLKKIEEQLTLEKLHEWTKPENLDFIEVNVSLPRFKLEESYTLNSDLARLGVQDLFNSSKADLSGMSGARDIFISKIVHKSFVEVNEEGTEAAAATAGIATFCMLMPEENFTADHPFLFFIRHNSSGSILFLGRFSSP [SERPINB1]”, the “solubility in G1/S (log2)” value with HeLa Kyoto [1] came to 0.121. Moreover, the figures for the thermal stability score with HeLa Kyoto [2] (setting [5]) and in the data set with HeLa Kyoto [2] (cell cycle stage: mitosis) were 1.35 and -2.02, respectively. Moreover, the melting temperature with HeLa Kyoto [3] (cell cycle stage: G1/S) and in the data set on HeLa Kyoto [3] (cell cycle stage: mitosis) was 53.2 °C in each case. Also, in the data set with HeLa Kyoto [4], the “solubility change mitosis (log2)” value was -0.165.
“MEQPPAPKSKLKKLSEDSLTKQPEEVFDVLEKLGEGSYGSVFKAIHKESGQVVAIKQVPVESDLQEIIKEISIMQQCDSPYVVKYYGSYFKNTDLWIVMEYCGAGSVSDIIRLRNKTLIEDEIATILKSTLKGLEYLHFMRKIHRDIKAGNILLNTEGHAKLADFGVAGQLTDTMAKRNTVIGTPFWMAPEVIQEIGYNCVADIWSLGITSIEMAEGKPPYADIHPMRAIFMIPTNPPPTFRKPELWSDDFTDFVKKCLVKNPEQRATATQLLQHPFIKNAKPVSILRDLITEAMEIKAKRHEEQQRELEEEEENSDEDELDSHTMVKTSVESVGTMRATSTMSEGAQTMIEHNSTMLESDLGTMVINSEDEEEEDGTMKRNATSPQVQRPSFMDYFDKQDFKNKSHENCNQNMHEPFPMSKNVFPDNWKVPQDGDFDFLKNLSLEELQMRLKALDPMMEREIEELRQRYTAKRQPILDAMDAKKRRQQNF [STK3]”: the “solubility in G1/S (log2)” value in the data set on HeLa Kyoto [1] amounted to 0.0428. Besides, the thermal stability score with HeLa Kyoto [2] (setting [5]) was 1.31; with HeLa Kyoto [2] (cell cycle stage: mitosis), 1.36. The melting temperature amounted to 53 °C in the data set with HeLa Kyoto [3] (cell cycle stage: G1/S) and 53.3 °C in the data set with HeLa Kyoto [3] (cell cycle stage: mitosis). In addition, the “solubility change mitosis (log2)” value with HeLa Kyoto [4] was -0.13.
For “MERKISRIHLVSEPSITHFLQVSWEKTLESGFVITLTDGHSAWTGTVSESEISQEADDMAMEKGKYVGELRKALLSGAGPADVYTFNFSKESCYFFFEKNLKDVSFRLGSFNLEKVENPAEVIRELICYCLDTIAENQAKNEHLQKENERLLRDWNDVQGRFEKCVSAKEALETDLYKRFILVLNEKKTKIRSLHNKLLNAAQEREKDIKQEGETAICSEMTADRDPVYDESTDEESENQTDLSGLASAAVSKDDSIISSLDVTDIAPSRKRRQRMQRNLGTEPKMAPQENQLQEKENSRPDSSLPETSKKEHISAENMSLETLRNSSPEDLFDEI [XRCC4]”, the “solubility in G1/S (log2)” value with HeLa Kyoto [1] was 0.0124. The thermal stability score in the data set on HeLa Kyoto [2] (setting [5]) is -0.551; in the data set with HeLa Kyoto [2] (cell cycle stage: mitosis), -0.497. Moreover, the melting temperature with HeLa Kyoto [3] (cell cycle stage: G1/S) was 55.2 °C; in the data set on HeLa Kyoto [3] (cell cycle stage: mitosis) it was 54.7 °C. In the data set on HeLa Kyoto [4], the “solubility change mitosis (log2)” value is -0.0112.
On to “MERPQPDSMPQDLSEALKEATKEVHTQAENAEFMRNFQKGQVTRDGFKLVMASLYHIYVALEEEIERNKESPVFAPVYFPEELHRKAALEQDLAFWYGPRWQEVIPYTPAMQRYVKRLHEVGRTEPELLVAHAYTRYLGDLSGGQVLKKIAQKALDLPSSGEGLAFFTFPNIASATKFKQLYRSRMNSLEMTPAVRQRVIEEAKTAFLLNIQLFEELQELLTHDTKDQSPSRAPGLRQRASNKVQDSAPVETPRGKPPLNTRSQAPLLRWVLTLSFLVATVAVGLYAM [HMOX1]”, for which the “solubility in G1/S (log2)” value in the data set with HeLa Kyoto [1] came out at 0.553. The thermal stability score was 0.266 in the data set with HeLa Kyoto [2] (setting [5]) and 0.9 in the data set with HeLa Kyoto [2] (cell cycle stage: mitosis). The melting temperature came out at 52.6 °C with HeLa Kyoto [3] (cell cycle stage: G1/S) and 53.9 °C in the data set with HeLa Kyoto [3] (cell cycle stage: mitosis). The “solubility change mitosis (log2)” value with HeLa Kyoto [4] was -0.0689.
